The source of these data is article PMC4579020, “Reassembly and co-crystallization of a family 9 processive endoglucanase from its component parts: structural and functional significance of the intermodular linker” (PeerJ, 2015).

Test [1] concerns the target T1, CBM3c module of Cel9I with its adjacent N-terminal linker, C-terminally His-tagged (Clostridium thermocellum, UniProt Q02934 54-516).
T1 construct: Cloning is described in Burstein et al., 2009 and Gilad et al., 2003; also called CBM3cL; CBM3c with linker; source: E. coli BL21(DE3)RIL, purified (Ni-IDA); not shown: His tag, C-terminal, kept
T1 sequence: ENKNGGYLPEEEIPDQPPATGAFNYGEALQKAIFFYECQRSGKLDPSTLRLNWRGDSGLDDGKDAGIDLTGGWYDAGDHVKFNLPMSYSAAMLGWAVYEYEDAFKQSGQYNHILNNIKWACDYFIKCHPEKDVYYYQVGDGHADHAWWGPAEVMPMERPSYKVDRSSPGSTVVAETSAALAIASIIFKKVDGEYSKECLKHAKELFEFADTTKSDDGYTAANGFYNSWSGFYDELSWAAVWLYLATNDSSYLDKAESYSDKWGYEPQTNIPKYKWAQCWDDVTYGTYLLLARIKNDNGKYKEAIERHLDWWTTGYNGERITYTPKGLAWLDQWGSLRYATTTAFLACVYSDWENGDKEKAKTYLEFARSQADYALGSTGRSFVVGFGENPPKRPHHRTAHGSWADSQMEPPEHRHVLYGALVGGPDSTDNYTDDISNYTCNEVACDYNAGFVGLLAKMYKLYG
Description: ITC; VP-ITC, 298 K; about 300 µM CBM3c injected into 65 µM GH9; 50 mM Tris-HCl pH 7.5, 150 mM NaCl, 0.05% sodium azide; one binding site model; CBM3c concentrations corrected to give a stoichiometry of one; two titrations. To be noted: both partners purified. Background: Isothermal titration calorimetry measures the heat released or taken up as one component is titrated into another.

Test [2] addresses GH9 catalytic module of Cel9I from Clostridium thermocellum, N-terminally His-tagged (Clostridium thermocellum).
Test [3] has as its target T2, GH9 catalytic module of Cel9I from Clostridium thermocellum, untagged (Clostridium thermocellum).
T2 chain: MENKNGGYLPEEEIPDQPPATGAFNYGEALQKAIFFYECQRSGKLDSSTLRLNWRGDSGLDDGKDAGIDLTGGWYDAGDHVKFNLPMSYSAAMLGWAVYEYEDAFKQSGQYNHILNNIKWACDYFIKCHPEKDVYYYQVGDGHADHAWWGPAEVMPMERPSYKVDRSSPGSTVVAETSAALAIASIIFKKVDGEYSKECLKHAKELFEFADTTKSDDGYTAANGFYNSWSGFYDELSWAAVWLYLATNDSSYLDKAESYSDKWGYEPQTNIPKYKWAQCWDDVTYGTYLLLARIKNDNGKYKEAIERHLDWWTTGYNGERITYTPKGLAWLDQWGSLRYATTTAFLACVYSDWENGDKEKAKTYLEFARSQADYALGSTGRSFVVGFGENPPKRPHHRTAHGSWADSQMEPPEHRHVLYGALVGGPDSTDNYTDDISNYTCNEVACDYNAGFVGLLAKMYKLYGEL
Put plainly: ITC; VP-ITC, 298 K; about 300 µM CBM3c injected into 65 µM GH9; 50 mM Tris-HCl pH 7.5, 150 mM NaCl, 0.05% sodium azide; one binding site model; CBM3c concentrations corrected to give a stoichiometry of one; two titrations. To be noted: both partners purified.

B1: GH9 catalytic module of Cel9I from Clostridium thermocellum, untagged (domain or fragment)
chain: T2 chain
modifications: one bound Ca2+ in the crystal. Limits are the crystallized untagged GH9 entity (466 aa, about 52 kDa as on SDS-PAGE). Paper residues 1-446 are entity 21-466 (offset +20, from Tyr440, Gly444 and end …)
Broadly, the Kd is a measure of binding affinity in units of concentration. High values mean weaker binding, low ones tighter binding. With B1, the Kd in test [1] was 1300 to 2000 nM.

B2: CBM3c module of Cel9I without the N-terminal linker, C-terminally His-tagged (domain or fragment)
chain: EVPEDEIFVEAGVNASGNNFIEIKAIVNNKSGWPARVCENLSFRYFINIEEIVNAGKSASDLQVSSSYNQGAKLSDVKHYKDNIYYVEVDLSGTKIYPGGQSAYKKEVQFRISAPEGTVFNPENDYSYQGLSAGTVVKSEYIPVYDAGVLVFGREP
modifications: one bound Ca2+ in the crystal. Limits are the crystallized untagged GH9 entity (466 aa, about 52 kDa as on SDS-PAGE). Paper residues 1-446 are entity 21-466 (offset +20, from Tyr440, Gly444 and end …)
For B2, in test [2], the CMCase activity (reducing sugar released in 10 min, 333 K, pH 6.0) of 70 pmol His-tagged GH9 mixed with increasing amounts of CBM3cNL, relative to intact Cel9I set as 100% (% of intact Cel9I activity) amounted to 10. The same molecule returned a Kd in test [3] of 290 to 430 nM.
